What is called IC50 is the point on the concentration scale where inhibition reaches its midpoint.

To fix the notation:
B1: peptide 11, Tm(AWIYA)Δ(FΦRrRΔ)-BBK (peptide)
peptide: Trimesoyl-AWIYA[Dap]F[2Nal]R[dR]R[Dap][βAla][βAla]K
modifications: linker N-6-12 via Tm
B2: peptide 7, Tm(GWIYA)Δ(FΦRrRΔ)-BBK (peptide)
peptide: Trimesoyl-GWIYA[Dap]F[2Nal]R[dR]R[Dap][βAla][βAla]K
modifications: linker N-6-12 via Tm
B3: peptide 2, Tm(GWIY)Δ(FΦRRRΔ)-BBK (peptide)
peptide: Trimesoyl-GWIY[Dap]F[2Nal]RRR[Dap][βAla][βAla]K
modifications: linker N-5-11 via Tm
B4: peptide 20, Tm(GAIAA)Δ(FΦRrRΔ)-BBK (peptide)
peptide: Trimesoyl-GAIAA[Dap]F[2Nal]R[dR]R[Dap][βAla][βAla]K
modifications: linker N-6-12 via Tm
B5: peptide 10, Tm(aGWIY)Δ(FΦRrRΔ)-BBK (peptide)
peptide: Trimesoyl-[dA]GWIY[Dap]F[2Nal]R[dR]R[Dap][βAla][βAla]K
modifications: linker N-6-12 via Tm
B6: peptide 3, Tm(GWIY)Δ(FΦRRRRΔ)-BBK (peptide)
peptide: Trimesoyl-GWIY[Dap]F[2Nal]RRRR[Dap][βAla][βAla]K
modifications: linker N-5-12 via Tm
B7: peptide 9, Tm(AGWIY)Δ(FΦRrRΔ)-BBK (peptide)
peptide: Trimesoyl-AGWIY[Dap]F[2Nal]R[dR]R[Dap][βAla][βAla]K
modifications: linker N-6-12 via Tm
B8: peptide 13, Tm(GWAYA)Δ(FΦRrRΔ)-BBK (peptide)
peptide: Trimesoyl-GWAYA[Dap]F[2Nal]R[dR]R[Dap][βAla][βAla]K
modifications: linker N-6-12 via Tm
B9: peptide 6, Tm(GWIY)Δ(FΦRrRΔ)-BBK (peptide)
peptide: Trimesoyl-GWIY[Dap]F[2Nal]R[dR]R[Dap][βAla][βAla]K
modifications: linker N-5-11 via Tm
B10: peptide 8, Tm(GWIYa)Δ(FΦRrRΔ)-BBK (peptide)
peptide: Trimesoyl-GWIY[dA][Dap]F[2Nal]R[dR]R[Dap][βAla][βAla]K
modifications: linker N-6-12 via Tm
B11: peptide 12, Tm(GAIYA)Δ(FΦRrRΔ)-BBK (peptide)
peptide: Trimesoyl-GAIYA[Dap]F[2Nal]R[dR]R[Dap][βAla][βAla]K
modifications: linker N-6-12 via Tm
B12: peptide 15, Tm(GWIYA)Δ(AΦRrRΔ)-BBK (peptide)
peptide: Trimesoyl-GWIYA[Dap]A[2Nal]R[dR]R[Dap][βAla][βAla]K
modifications: linker N-6-12 via Tm
B13: peptide 17, Tm(GWIYA)Δ(FΦArRΔ)-BBK (peptide)
peptide: Trimesoyl-GWIYA[Dap]F[2Nal]A[dR]R[Dap][βAla][βAla]K
modifications: linker N-6-12 via Tm
B14: peptide 18, Tm(GWIYA)Δ(FΦRaRΔ)-BBK (peptide)
peptide: Trimesoyl-GWIYA[Dap]F[2Nal]R[dA]R[Dap][βAla][βAla]K
modifications: linker N-6-12 via Tm
B15: peptide 14, Tm(GWIAA)Δ(FΦRrRΔ)-BBK (peptide)
peptide: Trimesoyl-GWIAA[Dap]F[2Nal]R[dR]R[Dap][βAla][βAla]K
modifications: linker N-6-12 via Tm
B16: peptide 21, Tm(GAAAA)Δ(FΦRrRΔ)-BBK (peptide)
peptide: Trimesoyl-GAAAA[Dap]F[2Nal]R[dR]R[Dap][βAla][βAla]K
modifications: linker N-6-12 via Tm

Numbered stars: 1 amine (or outer) side, 2 acyl side, 3 side chain; on linkers, the order of the positions; unused ones are H or OH. Bridge positions count the residues as written; N and C are the ends. Square brackets hold non-standard residues; d marks the D form. Ends that are not written are not given here. Tm = trimesic acid, bicyclized on Tm at the N-terminus; Trimesoyl = O=C(c1cc(C(=O)[*:2])cc(C(=O)[*:3])c1)[*:1]; 2Nal = N[C@@H](Cc1ccc2ccccc2c1)C(=O)O; Dap = NC[C@H](N)C(=O)O; βAla = NCCC(=O)O

For one experiment, the target named is Recombinant GST-NEMO (from plasmid pGEX4T3-NEMO(1-196)) (UniProt Q9Y6K9). Briefly: HTRF competition against biotin-IKKβKK/RR(701-745) on GST-NEMO.
Sequence of Recombinant GST-NEMO (from plasmid pGEX4T3-NEMO(1-196)) (Q9Y6K9 1-196): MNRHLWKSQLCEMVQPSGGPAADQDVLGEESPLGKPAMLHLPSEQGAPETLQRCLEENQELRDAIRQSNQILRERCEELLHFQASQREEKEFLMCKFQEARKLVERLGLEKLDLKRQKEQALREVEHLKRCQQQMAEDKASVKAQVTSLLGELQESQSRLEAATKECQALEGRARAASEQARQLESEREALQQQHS
On to “peptide 19, Tm(GWIYA)Δ(FΦRrRΔ)-BBK (as printed)”, for which the IC50 was found to be 1200 nM.

Turning to B1, the half-maximal inhibitory concentration (IC50) turned out to be 1200 nM.

On to B2, for which the half-maximal inhibitory concentration (IC50) is 1000 nM.

In the case of B3, the IC50 turned out to be 3400 nM.

For the molecule B4, the half-maximal inhibitory concentration (IC50) is 16000 nM.

Regarding B5, the IC50 was 2300 nM.

As to B6, the half-maximal inhibitory concentration (IC50) stood at 1500 nM.

Turning to B7, the IC50 came out at 2200 nM.

As for B8, the IC50 is 1700 nM.

Turning to B9, the concentration for half-maximal inhibition (IC50) came to 5900 nM.

With B10, the IC50 worked out at 2900 nM.

For the molecule B11, the IC50 stood at 3000 nM.

Consider B12, for which the IC50 was 1900 nM.

For the molecule B13, the concentration for half-maximal inhibition (IC50) was 1100 nM.

For the molecule B14, the concentration for half-maximal inhibition (IC50) is 2100 nM.

Turning to B15, the IC50 is 2800 nM.

For the next experiment the target is unchanged. Briefly: HTRF competition IC50 against peptide 7; upper end tied to peptide 12 by Table 5 (3.0 vs 1.0 µM). Background: TR-FRET usually uses a lanthanide donor and a delayed reading to cut background.
As to B11, the fold decrease in potency (against peptide 7) was 2 to 3 fold.

The target is the same in another experiment. Briefly: HTRF competition IC50, peptide 7 against peptide 6.
B2: the fold increase in binding affinity (against peptide 6) was determined as 5.9 fold.

A further experiment has the same target. Briefly: HTRF competition IC50 against peptide 7.
In the case of B16, the fold lower NEMO-binding affinity (against peptide 7) was more than 100 fold.

Consider B4, for which the fold lower NEMO-binding affinity (against peptide 7) worked out at 16 fold.

For a further experiment the target is unchanged. Briefly: HTRF competition against biotin-IKKβKK/RR(701-745) on GST-NEMO; lower end tied to peptide 2 by the same paragraph.
Consider B3, for which the 50% inhibitory concentration (IC50) was in the range of 3400 to 28000 nM.

The next experiment shares this target. Briefly: HTRF competition IC50 against peptide 7; lower end tied to peptide 13 by Table 5 (1.7 vs 1.0 µM).
On to B8, for which the fold decrease in potency (against peptide 7) lay within 2 to 3 fold.

These data come from patent publication US20200291070A1.
